Assay results from PMC4703834.

Target: Δ4-DgkA (thermostable mutant of Escherichia coli diacylglycerol kinase) (Escherichia coli) (UniProt P0ABN1)
Experiment: crystal structure; in meso (lipid cubic phase) crystals of Δ4-DgkA in 9.9 MAG at 4 °C, soaked with zinc-ACP (ternary complex, 2.7 Å) or without nucleotide; synchrotron data at 100 K

stoichiometry N: 3
Substance: Δ4-DgkA (thermostable mutant of Escherichia coli diacylglycerol kinase) (from UniProt P0ABN1 2-122) (enzyme)
